According to PMC5705219:

Biological target: PRDM9 chimera: human exons 1-9 joined to the final exon (ZF array, 18 zinc fingers) of the chimpanzee reference PRDM9 allele w11a, C-terminally tagged with HA or V5 (human | chimpanzee)
Experiment: co-IP; direct competition: HEK293T transfected with three constructs, Human and Chimp prey with the same epitope tag and Human or Chimp bait with the complementary tag; IP against the bait tag, western against the prey tag; both directions of HA/V5 tagging

PRDM9 chimera: human exons 1-9 joined to the final exon (ZF array, 18 zinc fingers) of the chimpanzee reference PRDM9 allele w11a, C-terminally tagged with HA or V5
fold pull-down efficiency against Human PRDM9 prey on the same Chimp bait: > 2 fold
